Test results taken from US5776725, “Recombinant production of glucagon receptors” (ZymoGenetics, Inc., dated 1998).
Blank lines part the entries; values can stand above or below the molecule they belong to.

Experiments:
[1] = target: human glucagon receptor encoded by plasmid pLJ6' (human); experiment: in situ 125I-glucagon binding with emulsion autoradiography on pLJ6'-transfected COS 7 cells
[2] = target: rat glucagon receptor encoded by plasmid pLJ4 (rat)
[3] = target: rat glucagon receptor encoded by plasmid pLJ4 (rat); remark: listed apart in the source
[4] = target: glucagon receptors of rat liver membrane preparations (rat) (UniProt P30082); experiment: Scatchard analysis of 125I-glucagon binding in competition with unlabeled glucagon, rat liver membranes
[5] = target: rat glucagon receptor encoded by plasmid pLJ4 (rat); remark: listed apart in the source
[6] = target: rat glucagon receptor encoded by plasmid pLJ4 (rat); remark: listed apart in the source
[7] = target: rat glucagon receptor encoded by plasmid pLJ4 (rat); experiment: Scatchard analysis of 125I-glucagon binding in competition with unlabeled glucagon, membranes of pLJ4 BHK transfectants
[8] = target: T1, bovine parathyroid hormone (PTH) (Sigma) (bovine, UniProt P01268); experiment: competition with 125I-glucagon, membranes of pLJ4 BHK transfectants
T1 sequence (peptide): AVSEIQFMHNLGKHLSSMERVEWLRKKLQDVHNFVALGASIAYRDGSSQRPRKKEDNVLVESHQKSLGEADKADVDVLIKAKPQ
Protocol: The binding reaction was initiated by the addition of 20 µl of a membrane preparation to the reaction tubes. The reactions were incubated for 30 minutes at 30° C. The membranes were pelleted by centrifugation in a microfuge at high speed for 10 minutes at 4° C. The supernatants from each sample were aspirated, and the pellets were counted.

percent of transfected cells that bound glucagon [1]: > 50%
Molecule: 125I-glucagon (Amersham receptor grade) (ligand)

intracellular calcium concentration (fura-2 photoimaging) [2]: 400 nM | ED50 of cAMP induction [3]: 0.25 nM | induction of cAMP levels (scintillation proximity radioimmunoassay) [3]: 140 fold | Kd [4]: 49 nM | cAMP levels (Amersham SPA kit) [5]: 5 fold | fold induction of luciferase (CRE-luciferase) [6]: 6 to 10 fold | Kd [7]: 50 nM
Molecule: glucagon (ligand)

binding result [8]: no binding (tested: 1 µM)
B1: rat glucagon receptor encoded by plasmid pLJ4 (receptor)
chain: AQVMDFLFEKWKLYSDQCHHNLSLLPPPTELVCNRTFDKYSCWPDTPPNTTANISCPWYLPWYHKVQHRLVFKRCGPDGQWVRGPRGQSWRDASQCQMDDDEIEVQKGVAKMYSSYQVMYTVGYSLSLGALLLALVILLGLRKLHCTRNYIHGNLFASFVLKAGSVLVIDWLLKTRYSQKIGDDLSVSVWLSDGAVAGCRVATVIMQYGIIANYCWLLVEGVYLYSLLSITTFSEKSFFSLYLCIGWGSPLLFVIPWVVVKCLFENVQCWTSNDNMGFWWILRIPVLLAILINFFIFVRIIHLLVAKLRAHQMHYADYKFRLARSTLTLIPLLGVHEVVFAFVTDEHAQGTLRSTKLFFDLFFSSFQGLLVAVLYCFLNKEVQAELLRRWRRWQEGKALQEERMASSHGSHMAPAGTCHGDPCEKLQLMSAGSSSGTGCEPSAKTSLASSLPRLADSPT
